Measured values: US20230395193A1 (priority 2020, published 2023)

Biological target: T1, Orf8-IL17RA interaction (Homo sapiens, UniProt Q96F46)
T1 construct: co-immunoprecipitation of endogenous IL17RA with Strep-tagged Orf8; host or cells: HEK293T
T1 sequence (Q96F46 33-866): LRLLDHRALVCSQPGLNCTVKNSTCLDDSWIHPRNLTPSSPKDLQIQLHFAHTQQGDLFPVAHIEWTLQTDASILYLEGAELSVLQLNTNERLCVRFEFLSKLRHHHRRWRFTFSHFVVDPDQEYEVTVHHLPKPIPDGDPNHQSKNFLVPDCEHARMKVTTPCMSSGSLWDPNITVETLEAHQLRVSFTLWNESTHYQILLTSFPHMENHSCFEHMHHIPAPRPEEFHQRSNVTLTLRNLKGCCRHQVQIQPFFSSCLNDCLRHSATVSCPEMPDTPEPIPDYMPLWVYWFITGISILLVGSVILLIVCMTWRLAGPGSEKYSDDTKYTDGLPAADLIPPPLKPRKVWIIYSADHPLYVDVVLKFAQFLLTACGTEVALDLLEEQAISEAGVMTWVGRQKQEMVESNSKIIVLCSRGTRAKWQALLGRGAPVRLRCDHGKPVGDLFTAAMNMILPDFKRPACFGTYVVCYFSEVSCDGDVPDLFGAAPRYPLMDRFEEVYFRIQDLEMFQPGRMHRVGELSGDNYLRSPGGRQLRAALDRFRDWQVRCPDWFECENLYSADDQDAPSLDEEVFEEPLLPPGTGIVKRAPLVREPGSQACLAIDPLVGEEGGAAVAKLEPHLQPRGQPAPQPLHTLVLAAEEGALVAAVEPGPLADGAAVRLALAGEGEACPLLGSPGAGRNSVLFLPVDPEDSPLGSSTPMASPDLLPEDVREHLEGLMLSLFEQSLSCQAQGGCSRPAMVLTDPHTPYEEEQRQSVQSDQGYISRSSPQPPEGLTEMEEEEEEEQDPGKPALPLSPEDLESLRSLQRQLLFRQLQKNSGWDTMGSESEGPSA
Type: binding

## IL-17A
  Effect on Orf8-IL17RA interaction (co-immunoprecipitation, in words): does not disrupt the interaction with Orf8
